What follows are binders tested against alpha-synuclein (Homo sapiens, UniProt P37840) (assay: SPR).
EQALMPWIWYWKDPNGS (preformed fibrils) [EQALMPWIWYWKDPNGS peptide] gave a Kd of 28.4 µM. Binder PYYYWKELAQM (preformed fibrils) [PYYYWKELAQM peptide] has a Kd of 55.2 µM. For ELAQMPYYYWKDPNGS (preformed fibrils) [ELAQMPYYYWKDPNGS peptide], the Kd was 133 µM. In the case of ELAQMGPEGMGLEDPNGS (preformed fibrils) [ELAQMGPEGMGLEDPNGS peptide], the Kd is reported as 194 µM. PYYYWKDPNGS (preformed fibrils) [PYYYWKDPNGS peptide] showed a Kd of 39.2 µM.
